Data on two molecules can be found in patent US20220380456A1 (UNITED KINGDOM RESEARCH AND INNOVATION, published 2022).

One assay deals with T1, MSP1E3D1 (human Apo A-I derived, engineered).
T1 construct: also called MSP1E1D3 MSP variant
T1 chain: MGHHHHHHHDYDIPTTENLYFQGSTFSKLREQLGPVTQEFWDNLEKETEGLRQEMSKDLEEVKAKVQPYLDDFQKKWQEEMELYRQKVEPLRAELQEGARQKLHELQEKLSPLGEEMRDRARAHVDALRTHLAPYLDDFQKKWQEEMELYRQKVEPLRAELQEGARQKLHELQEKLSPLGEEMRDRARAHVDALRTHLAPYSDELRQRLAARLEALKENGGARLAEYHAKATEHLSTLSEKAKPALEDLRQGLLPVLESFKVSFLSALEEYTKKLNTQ
The assay can be described thus: ELISA on coated MSP variants, n=3.

The target of assay [1] is T2, His6-TEV-MSP1D1 (CA15914) (human Apo A-I derived, engineered, biotinylated with EZ-link NHS-Biotin for the BLI experiment only).
T2 construct: Membrane scaffold protein; The entry holds the 6xHis tag, the TEV cleavage site and MSP1D1; Tested in Apo-state (lipid free) and in Nanodisc-state (POPC nanodisc, two MSP1D1 per nanodisc)
T2 chain: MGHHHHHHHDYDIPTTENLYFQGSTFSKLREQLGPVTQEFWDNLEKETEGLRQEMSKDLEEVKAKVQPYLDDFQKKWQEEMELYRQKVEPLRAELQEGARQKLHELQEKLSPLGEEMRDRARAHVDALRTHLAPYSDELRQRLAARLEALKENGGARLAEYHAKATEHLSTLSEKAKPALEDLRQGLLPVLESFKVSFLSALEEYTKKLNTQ
The assay can be described thus: ELISA, purified MegaBody 200 nM on coated MSP (1 µg/mL in 100 µL, Apo- and Nanodisc-state), EPEA-tag detection, OD405 after 1 h.

Assay [2] addresses T3, His6-TEV-MSP2N2 (CA15915) (human Apo A-I derived, engineered, UniProt P02647 79-267, limits assumed).
T3 construct: Membrane scaffold protein; The entry holds the 6xHis tag, the TEV cleavage site and MSP2N2; Tested in Apo-state, in Nanodisc-state, and as the belt of nanodiscs loaded with GABAAR-β3
The assay is described as above.

Assay [3] concerns the target T2, His6-TEV-MSP1D1 (CA15914). Put plainly: ELISA, purified MegaBody on coated MSP (Apo- or Nanodisc-state) vs non-coated wells, A405.
The target of assay [4] is T3, His6-TEV-MSP2N2 (CA15915). Described as above.
Assay [5] addresses T2, His6-TEV-MSP1D1 (CA15914). Put plainly: BLI (OctetRED96), biotinylated Apo MSP1D1 on streptavidin sensors, 1:2 binding model.
Assay [6] has as its target T2, His6-TEV-MSP1D1 (CA15914). Put plainly: BLI (OctetRED96), biotinylated MSP1D1 (Apo-state) on streptavidin sensors, 1:2 binding model, 30 °C; biotinylated Apo-state MSP1D1 on the SA sensor; 30 C; 1:2 binding model.

B1: MegaBody MbNb25^c7HopQ against GABAAR-β3 (other)
chain: QVQLVESGGGLVQTKTTTSVIDTTNDAQNLLTQAQTIVNTLKDYCPILIAKSSSSNGGTNNANTPSWQTAGGGKNSCATFGAEFSAASDMINNAQKIVQETQQLSANQPKNITQPHNLNLNSPSSLTALAQKMLKNAQSQAEILKLANQVESDFNKLSSGHLKDYIGKCDASAISSANMTMQNQKNNWGNGCAGVEETQSLLKTSAADFNNQTPQINQAQNLANTLIQELGNNTYEQLSRLLTNDNGTNSKTSAQAINQAVNNLNERAKTLAGGTTNSPAYQATLLALRSVLGLWNSMGYAVICGGYTKSPGENNQKDFHYTDENGNGTTINCGGSTNSNGTHSYNGTNTLKADKNVSLSIEQYEKIHEAYQILSKALKQAGLAPLNSKGEKLEAHVTTSKYGSLRLSCAASGHTFNYPIMGWFRQAPGKEREFVGAISWSGGSTSYADSVKDRFTISRDNAKNTVYLEMNNLKPEDTAVYYCAAKGRYSGGLYYPTNYDYWGQGTQVTVSSHHHHHHEPEA
notes: MegaBody derived from Nb25 with the c7HopQ scaffold
As for B1, the binding result with MSP1E3D1 is “no binding”; in assay [1] it was “no binding (tested: 200 nM)”; in assay [2], “no binding (tested: 200 nM)”.

B2: MbNbF3^c7HopQ MegaBody (CA15192) (other)
chain: QVQLVESGGGLVQTKTTTSVIDTTNDAQNLLTQAQTIVNTLKDYCPILIAKSSSSNGGTNNANTPSWQTAGGGKNSCATFGAEFSAASDMINNAQKIVQETQQLSANQPKNITQPHNLNLNSPSSLTALAQKMLKNAQSQAEILKLANQVESDFNKLSSGHLKDYIGKCDASAISSANMTMQNQKNNWGNGCAGVEETQSLLKTSAADFNNQTPQINQAQNLANTLIQELGNNTYEQLSRLLTNDNGTNSKTSAQAINQAVNNLNERAKTLAGGTTNSPAYQATLLALRSVLGLWNSMGYAVICGGYTKSPGENNQKDFHYTDENGNGTTINCGGSTNSNGTHSYNGTNTLKADKNVSLSIEQYEKIHEAYQILSKALKQAGLAPLNSKGEKLEAHVTTSKYGSLRLSCAASGSGFGPNVMGWYRQAPGKRRELVATINRIGNINYGDSVKGRFTLSREIAVNTVYLQMNSLKPEDAANYYCYAAKYGVDYWGKGTQVTVSSHHHHHHEPEA
notes: MegaBody: c7HopQ scaffold inserted in the first β-turn of Nanobody MP1521_F3; Entry includes 6xHis and EPEA tags; also called MbF3^c7HopQ MegaBody
For B2, the binding result with MSP1E3D1 was “binds”. For the same molecule, the “fold ELISA signal over no MSP” value in assay [3] and in assay [4] was not below 4 fold in each case. Further, the koff in assay [5] turned out to be 0.00103 s⁻¹. The molecule further came in with a kon in assay [5] of 44000 M⁻¹ s⁻¹. The dissociation constant Kd in assay [6] amounted to 23.5 nM.
